What was measured:
[1] = target: non-catalytic subunit of DNA polymerase ε (POLE2), endogenous (human (endogenous in Jurkat)) (UniProt P56282); assay: native holdup (nHU) with mass spectrometry; estimate from the difference between the depletion of POLE and of POLE2 by the same NPF motif bait, with about 1 nM of each assumed in the extract; apparent
[2] = target: NPF motif peptide of DONSON (residues 71-88); assay: native holdup (nHU) titration with dot blot; DONSON_71-88-saturated streptavidin resin mixed with control resin at various proportions; extracts of HEK293T cells expressing HA-tagged POLE2 variants; 4 °C, 2 h; depletion quantified with an antibody against the HA tag; apparent

Sequence of catalytic subunit of DNA polymerase ε (POLE), endogenous (Q07864 whole entry): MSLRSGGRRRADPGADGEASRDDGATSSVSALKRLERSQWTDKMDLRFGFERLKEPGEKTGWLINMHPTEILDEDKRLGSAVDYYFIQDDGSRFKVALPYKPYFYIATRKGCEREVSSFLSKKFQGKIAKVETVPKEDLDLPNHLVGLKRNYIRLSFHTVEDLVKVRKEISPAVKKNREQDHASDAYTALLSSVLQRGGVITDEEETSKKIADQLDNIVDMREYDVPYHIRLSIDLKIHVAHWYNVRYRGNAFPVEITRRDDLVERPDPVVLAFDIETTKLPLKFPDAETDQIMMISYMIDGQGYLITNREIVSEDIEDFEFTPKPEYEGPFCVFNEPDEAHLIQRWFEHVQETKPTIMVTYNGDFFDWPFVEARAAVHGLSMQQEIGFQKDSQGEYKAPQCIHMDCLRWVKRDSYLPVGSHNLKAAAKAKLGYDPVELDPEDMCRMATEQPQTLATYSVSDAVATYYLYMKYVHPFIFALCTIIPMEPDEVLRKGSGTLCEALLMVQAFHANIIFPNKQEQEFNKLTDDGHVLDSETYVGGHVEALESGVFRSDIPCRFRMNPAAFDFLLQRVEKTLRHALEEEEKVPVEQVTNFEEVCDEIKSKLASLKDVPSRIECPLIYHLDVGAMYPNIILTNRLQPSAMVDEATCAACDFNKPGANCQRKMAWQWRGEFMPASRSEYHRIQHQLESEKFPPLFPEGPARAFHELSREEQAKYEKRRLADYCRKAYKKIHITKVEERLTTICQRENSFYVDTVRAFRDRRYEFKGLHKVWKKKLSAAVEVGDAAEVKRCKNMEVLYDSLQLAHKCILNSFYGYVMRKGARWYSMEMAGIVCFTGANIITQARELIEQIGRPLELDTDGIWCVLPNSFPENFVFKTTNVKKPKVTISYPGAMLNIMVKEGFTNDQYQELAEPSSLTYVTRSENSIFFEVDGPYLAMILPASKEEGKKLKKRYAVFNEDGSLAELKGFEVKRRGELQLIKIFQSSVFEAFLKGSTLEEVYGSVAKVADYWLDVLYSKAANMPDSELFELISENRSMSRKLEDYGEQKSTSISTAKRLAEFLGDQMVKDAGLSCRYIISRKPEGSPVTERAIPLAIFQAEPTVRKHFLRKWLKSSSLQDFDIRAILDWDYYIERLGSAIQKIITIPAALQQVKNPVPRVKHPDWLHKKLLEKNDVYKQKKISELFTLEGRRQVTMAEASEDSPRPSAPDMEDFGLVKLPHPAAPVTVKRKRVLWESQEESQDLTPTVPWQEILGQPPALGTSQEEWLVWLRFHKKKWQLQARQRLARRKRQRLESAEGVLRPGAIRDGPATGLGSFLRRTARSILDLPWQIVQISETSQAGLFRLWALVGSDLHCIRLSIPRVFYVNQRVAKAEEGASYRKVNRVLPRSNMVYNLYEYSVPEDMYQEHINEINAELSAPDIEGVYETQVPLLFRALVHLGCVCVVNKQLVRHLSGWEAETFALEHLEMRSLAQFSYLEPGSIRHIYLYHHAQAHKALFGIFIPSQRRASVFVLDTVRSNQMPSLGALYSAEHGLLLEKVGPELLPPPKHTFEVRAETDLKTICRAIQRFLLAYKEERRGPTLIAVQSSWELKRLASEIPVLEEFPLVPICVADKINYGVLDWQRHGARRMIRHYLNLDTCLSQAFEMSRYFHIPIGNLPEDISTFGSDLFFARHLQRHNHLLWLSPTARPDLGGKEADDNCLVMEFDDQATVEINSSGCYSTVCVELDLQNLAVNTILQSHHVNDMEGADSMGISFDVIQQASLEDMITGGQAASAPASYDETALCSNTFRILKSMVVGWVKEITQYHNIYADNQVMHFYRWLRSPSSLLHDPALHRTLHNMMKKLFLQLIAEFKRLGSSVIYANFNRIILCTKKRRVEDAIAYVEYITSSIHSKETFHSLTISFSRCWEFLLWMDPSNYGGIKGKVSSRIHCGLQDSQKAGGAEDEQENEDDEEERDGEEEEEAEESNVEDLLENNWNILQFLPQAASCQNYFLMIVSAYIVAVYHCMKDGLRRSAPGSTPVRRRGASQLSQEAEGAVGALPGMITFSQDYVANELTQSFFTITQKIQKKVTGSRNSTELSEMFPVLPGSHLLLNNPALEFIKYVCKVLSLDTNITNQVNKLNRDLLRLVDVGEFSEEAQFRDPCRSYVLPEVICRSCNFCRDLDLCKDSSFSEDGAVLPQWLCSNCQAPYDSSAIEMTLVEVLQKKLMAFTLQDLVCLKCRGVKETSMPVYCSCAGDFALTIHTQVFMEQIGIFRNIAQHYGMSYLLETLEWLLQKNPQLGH
Sequence of HA-MBP-POLE2 (P56282 whole entry): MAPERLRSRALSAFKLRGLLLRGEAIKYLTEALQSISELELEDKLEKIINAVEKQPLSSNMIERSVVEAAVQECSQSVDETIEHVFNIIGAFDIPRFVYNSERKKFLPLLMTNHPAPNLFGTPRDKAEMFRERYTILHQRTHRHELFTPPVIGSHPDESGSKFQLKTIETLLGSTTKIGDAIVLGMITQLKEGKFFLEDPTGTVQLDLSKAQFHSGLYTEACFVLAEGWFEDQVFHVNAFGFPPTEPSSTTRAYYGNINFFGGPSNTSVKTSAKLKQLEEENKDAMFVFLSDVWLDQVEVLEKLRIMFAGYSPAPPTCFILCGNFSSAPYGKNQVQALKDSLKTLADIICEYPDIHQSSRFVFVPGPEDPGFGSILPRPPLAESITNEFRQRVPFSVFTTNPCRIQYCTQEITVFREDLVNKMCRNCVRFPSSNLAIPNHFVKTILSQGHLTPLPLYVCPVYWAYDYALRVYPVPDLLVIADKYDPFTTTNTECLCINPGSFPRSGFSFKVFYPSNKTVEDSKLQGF
Sequence of non-catalytic subunit of DNA polymerase ε (POLE2), endogenous (human (endogenous in Jurkat)) (P56282 whole entry, the tested form may be a part): as the sequence (P56282 whole entry) above

| Substance | Kd [1] [nM] | fold weaker binding than HA-POLE2 [2] [fold] |
| --- | --- | --- |
| catalytic subunit of DNA polymerase ε (POLE), endogenous (from UniProt Q07864 1-2286) (natural protein) | 0.1 to 0.3 |  |
| HA-MBP-POLE2 (from UniProt P56282 1-527) (natural protein) |  | 10 |

From paper PMC12808100, “The non-catalytic DNA polymerase ε subunit is an NPF motif recognition protein” (Nature Communications, 2025)
